# Reference: PMC2911679 (Biochemical Journal, 2010)
# Assays:
# [1] = molecular target: biotinylated Impβ1 (GST-fusion protein, biotinylated with sulfo-NHS-biotin) (UniProt P70168 1-876, biotin (sulfo-NHS-biotin reagent; sites not stated)); assay: AlphaScreen or HTRF
# [2] = molecular target: biotin-labelled calmodulin (CaM) (UniProt P0DP23 1-149, biotin (site not stated)); assay: AlphaScreen or HTRF
# Chain of biotinylated Impβ1 (GST-fusion protein, biotinylated with sulfo-NHS-biotin) (P70168 whole entry, the tested form may be a part): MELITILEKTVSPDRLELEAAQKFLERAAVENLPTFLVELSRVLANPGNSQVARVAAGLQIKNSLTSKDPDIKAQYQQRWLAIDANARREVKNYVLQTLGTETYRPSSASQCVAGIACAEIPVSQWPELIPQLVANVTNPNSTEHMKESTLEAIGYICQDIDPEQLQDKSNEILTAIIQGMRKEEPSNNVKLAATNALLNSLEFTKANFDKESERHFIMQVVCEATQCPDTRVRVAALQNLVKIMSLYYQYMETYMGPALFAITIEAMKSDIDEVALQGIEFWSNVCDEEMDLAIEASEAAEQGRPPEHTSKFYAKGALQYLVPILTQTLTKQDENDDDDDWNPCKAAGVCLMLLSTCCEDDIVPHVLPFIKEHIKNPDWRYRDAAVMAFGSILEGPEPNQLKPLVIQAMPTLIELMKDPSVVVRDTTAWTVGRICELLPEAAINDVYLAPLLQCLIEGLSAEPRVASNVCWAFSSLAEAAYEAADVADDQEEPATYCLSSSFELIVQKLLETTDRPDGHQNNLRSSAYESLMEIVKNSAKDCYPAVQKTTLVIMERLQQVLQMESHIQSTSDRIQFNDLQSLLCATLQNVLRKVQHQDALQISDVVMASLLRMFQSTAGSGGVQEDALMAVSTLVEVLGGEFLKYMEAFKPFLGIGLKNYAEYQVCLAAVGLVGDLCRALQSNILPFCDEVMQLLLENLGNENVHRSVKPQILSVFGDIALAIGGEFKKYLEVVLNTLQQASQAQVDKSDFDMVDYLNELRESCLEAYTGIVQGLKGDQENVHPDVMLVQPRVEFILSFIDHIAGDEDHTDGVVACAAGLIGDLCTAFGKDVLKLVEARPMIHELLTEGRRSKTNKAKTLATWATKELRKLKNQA
Kd [1],Kd [2],Binder
3.6 nM,0.62 nM,His6-tagged GFP–SRY-HMG Y127C (SRY residues 55–141) (domain or fragment) not shown
0.89 nM,,His6-tagged GFP–SRY-HMG R76P (SRY residues 55–141) (domain or fragment) not shown

# The next lines start with the binder.
Binder,Kd [1],Kd [2]
His6-tagged GFP–SRY-HMG F67V (SRY residues 55–141) (domain or fragment) not shown,1.09 nM,
His6-tagged GFP–SRY-HMG M64T (SRY residues 55–141) (domain or fragment) not shown,1.42 nM,
"His6-tagged GFP–SRY-HMG, wild type (SRY residues 55–141) (domain or fragment) not shown",0.94 nM,0.43 nM
